Measured values reported in the supplement of paper PMC10567573.
± gives the standard deviation.

Assay: protein stability index of a GFP-peptide fusion (GPS, HEK-293T) (PSI 1-6); higher = more stable
Settings: c terminus: a fixed tail appended
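Further: 24-mer peptide tiles fused after GFP, lentivirally expressed, FACS-sorted into six equal bins by GFP/DsRed ratio, decoded by Illumina sequencing, PSI is the read-weighted mean bin number.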

Sequence	protein stability index (treatment: DMSO)	protein stability index (treatment: MLN4924 1 uM, 8 h)
LFLMECEESPNGSEGACEKEKQSR [RHOBTB1]	4.69 ± 0.44	4.83 ± 0.17
PCIRNVTSPTRQHHVEREKDHSSS [BTBD10]	5.23 ± 0.14	5.02 ± 0.42
VYGVSKETFLSFLEYLYTDSCCPA [RHOBTB3]	2.16 ± 0.41	2.1 ± 0.24
SNKKMLLLVGGLPPGPDRLPSNLV [KLHL14]	2.17 ± 0.19	2.34 ± 0.22
ADSTSFDVQLGDIILTATDGLFDN [PPTC7]	3.58 ± 0.22	3.68 ± 0.26
LAATTSMAYAKLMLTVMTKYQANI [FANCE]	2.92 ± 0.32	3.26 ± 0.72
HSMRNSLESTLAETEARYSSQLAQ [KRT36]	4.53 ± 0.22	4.57 ± 0.17
RLLALIYLAHASDVLENAFAPLLD [GOLPH3]	2.65 ± 0.48	2.7 ± 0.71
AEKKKPKTQIVCKHFLEAIENNKY [ZC3H15]	3.51 ± 0.41	3.63 ± 0.25
KLRRQVIQVVLNGMESYQEVTVQR [ZER1]	2 ± 0.19	2.28 ± 0.57
GHPFFEGVDWEHIRERPAAIPIEI [STK38L]	2.46 ± 0.39	2.84 ± 0.38
LFEDIVAREYYSEADASHCIQQIL [CAMK2A]	2.36 ± 0.069	2.62 ± 0.35
GPAVVCGTPTSHVYMFKNGSGDSG [LYSMD4]	3.7 ± 0.12	3.65 ± 0.33
RKVTDSISKSLELCNEISLSEIKD [DLC1]	4.136 ± 0.019	4.26 ± 0.11
LKRSANQMGVSAKRRPKAQPTTLV [MED27]	3.48 ± 0.17	3.72 ± 0.27
ALRPTAFSGCLNCSKVSELTERLK [EMID1]	2.74 ± 0.37	2.97 ± 0.47
VASFKFDAGEVSYLPRDFSTYRPL [MYORG]	2.28 ± 0.37	2.54 ± 0.17
APGDLSATEPATCFPSTQKPTEPS [FBF1]	5.22 ± 0.22	5.343 ± 0.051
GSSSLGFTSSPSPFSSSSPENVED [FCHO1]	5.38 ± 0.2	5.29 ± 0.19
EAHFMLQVADINDNPPTFSQVSYF [PCDHGA10]	2.34 ± 0.41	2.33 ± 0.25
QTLLPAACLLQLAEIQEACCEFLK [KLHL20]	2.21 ± 0.31	2.36 ± 0.15
IGIEAKNLASYDVCSILLGTSTLL [MCOLN1]	2.84 ± 0.7	2.92 ± 0.66
QPLRTPRDEAIYECVASNNVGEIS [PTPRD]	4.88 ± 0.23	5.13 ± 0.12

Sequence	protein stability index (treatment: DMSO)	protein stability index (treatment: MLN4924 1 uM, 8 h)
KALNLLPANTQINDIRIFLEKVLE [VPS39]	2.11 ± 0.41	2.04 ± 0.29
DFDDEKILIQHQKAKHFKCHICHK [ZNF207]	2.85 ± 0.31	3.31 ± 0.19
LFVLLSVVCVLLNLAGFILGCQGA [FAM189A2]	3.15 ± 0.38	3.25 ± 0.61
TYGQPKQAPPADFIPAHVAFDKKV [EFHC1]	3.81 ± 0.34	4.16 ± 0.061
TSLQGLTGTPLVAGSPIRHENAVQ [ISL2]	4.31 ± 0.33	4.36 ± 0.16
MKEFSNQVVGQVNVEMDATPGIDL [KRT13]	4.58 ± 0.16	4.44 ± 0.27
IVNDELYLNGASVLPHKSIGESVP [GMPPB]	3.67 ± 0.24	3.4 ± 0.29
GGMNHSAFPQTPFKTGNSTATCTT [KCNA3]	4.27 ± 0.24	4.4 ± 0.4
VILKNSQGEEVAQRSTVFKTTIPE [LMNB1]	2.67 ± 0.34	2.84 ± 0.24
IVKAMASPESGLEVRDRMLLKITI [DVL3]	3.12 ± 0.44	2.9 ± 0.55
HSVNRDLNELERLSNLVGKPSENH [MED27]	4.75 ± 0.18	4.71 ± 0.11
TEPWGGTAIRPLKILPWSPEKIGT [PNLIPRP1]	3.45 ± 0.26	3.65 ± 0.36
FLEEDNYKNIKRPPGDIMFLLVQR [USP39]	2.23 ± 0.37	2.11 ± 0.27
LSALKHAVLGLYLLVFLILVGIFI [SCARA5]	2.16 ± 0.63	2.08 ± 0.14
AFAPDFKELDENVEYEERESEFDI [RBBP5]	5.38 ± 0.15	5.16 ± 0.41
KACSLLDVAVHMPCLGHTFNAGIQ [ZBED1]	2.19 ± 0.5	2.11 ± 0.36
LLRDHIPRGKEELESLGGGKTPPG [MOG]	4.89 ± 0.18	4.81 ± 0.37
LREKVEFLRSLRQMKQKVQSLYQE [NFE2L1]	2.09 ± 0.58	2.82 ± 0.52
QSAQIACSSPSVVASLPLDQSDEG [MAGEA10]	5.5 ± 0.45	5.236 ± 0.029
CSNSQEHGAHKHHPIEEAAEEHRE [TRIM43]	5.51 ± 0.34	5.37 ± 0.27
PLGLEADMWSIGVITYILLSGASP [DAPK3]	2.52 ± 1.4	2.27 ± 0.23
EGSCYQTFRQYCGAACTCHVRNPL [RNF208]	2.4 ± 0.37	2.6 ± 0.2
ENQSSQAELKEAVEEPSSKDVMEK [CHGA]	5.6 ± 0.12	5.72 ± 0.19

Sequence	protein stability index (treatment: DMSO)	protein stability index (treatment: MLN4924 1 uM, 8 h)
NGMNAVMMHGRSYSLASGAGGGGS [RAB40C]	3.19 ± 0.26	3.34 ± 0.34
PSGFKHVSHVGWDPQNGFDVNNLD [WAS]	3.83 ± 0.24	3.79 ± 0.58
AQQWRRARHNYNDLCPPIGRRAAT [GNAS]	3.58 ± 0.3	3.6 ± 0.16
HVKIVKLLLAHKADVNAQSSTGNT [ANKRD17]	2.32 ± 0.26	2.36 ± 0.22
ASFYACRLDKHLYVIGGRNETGYL [KLHL14]	2.7 ± 0.54	2.54 ± 0.95
SKSLMTSVPMNGTSIQWKNHDQNN [EDNRA]	4.25 ± 0.045	4.41 ± 0.18
HTRQLISCGGDGGIVVWNMDVERQ [WDFY2]	2.55 ± 0.36	2.4 ± 0.14
QEQIEAVLLNSLQQYRQDQRDGSK [CCND2]	4.51 ± 0.086	4.46 ± 0.13
CFARKSQLTGHQRIHSGEEPHKCP [ZNF449]	3.64 ± 0.1	4.01 ± 0.18
VHETPAASKTVFFFFSSPGNNNGT [BTBD1]	2.37 ± 0.3	2.15 ± 0.31
INAAFMLLFKDLIKLFACYNDGVI [SNAP91]	2.9 ± 0.54	3.39 ± 0.65
IALGQMLSLCICGTAITSQYLAER [SLC35F2]	3.37 ± 0.27	2.48 ± 0.16
LAGSESLPVETLGPASRMDPESER [PBXIP1]	5.2 ± 0.18	5.21 ± 0.21
WLLTKIDHWNNEKERILLVTDKTL [TPRG1]	2.11 ± 0.41	2.16 ± 0.28
RVYNNTLTYGEVRNSKASAYCLDQ [GALNT9]	2.98 ± 0.16	3.07 ± 0.31
AILVKVQLDALPFFVITMIKIVLI [SLC29A1]	3.23 ± 0.22	3.23 ± 0.37
SEDWTMEERFRPLTFHGLILRSQL [CLCN6]	2.32 ± 0.13	2.23 ± 0.18
FLGHHSFSVRPGTEATISIREDEV [SCNN1D]	2.42 ± 0.64	3.12 ± 0.52
CTGTEAHISSCKLGPQVSLDPMKN [LOXL2]	3.5 ± 0.29	3.81 ± 0.11
KEEQRDYVFYLAVGNYRLKEYEKA [FIS1]	2.39 ± 0.43	2.23 ± 0.36
GPARSGFRLETLAGLRSRRLKQPK [MIR22HG]	3.87 ± 0.24	4.14 ± 0.13
ILRFIYSGAFQWEELEEDIRKKLK [RHOBTB3]	2.25 ± 0.27	2.48 ± 0.53
SVRISFAKGWGPCYSRQFITSCPC [SMAD6]	2.79 ± 0.67	2.78 ± 0.85

Sequence	protein stability index (treatment: DMSO)	protein stability index (treatment: MLN4924 1 uM, 8 h)
KEISDDEAEEEKGEKEEEDKDDEE [HSP90AB1]	5.66 ± 0.34	5.68 ± 0.19
AAAAAHSTPVRREVTDKEQEFAAR [EPB41L3]	5.28 ± 0.47	5.18 ± 0.56
QRVEKDMKKAKEQLKIRKSNQIPT [FUNDC2]	4.58 ± 0.32	4.56 ± 0.26
KPQDSSQPSDRLMTEKQQEEAEWE [CEP70]	5.59 ± 0.4	5.45 ± 0.46
QQRLQGQLCDVSIRVQGREFRAHR [ZBTB22]	3.34 ± 0.42	3.81 ± 0.5
NLLDVYSSQGVATPAITVSNSCPA [TFE3]	3.4 ± 0.15	3.34 ± 0.22
DGAAYIGNFDWVGNDFTQNAGTGL [PLD5]	3.3 ± 0.49	3.44 ± 0.14
KRQAVNKAVANMQGEMDRKCKQVK [ZMYND11]	4.6 ± 0.68	4.71 ± 0.45
QADLELIESAHRSRIKVLETSYQQ [FBF1]	5.22 ± 0.16	5.11 ± 0.12
FSPSQFLNFWNKQDTLELESPSLT [MYBL2]	2.47 ± 0.55	3.06 ± 0.39
PNFMKVIPAVSISYVVYENLKITL [SLC25A25]	3.2 ± 0.4	3.46 ± 0.52
GEAAAGGAAEEARRLEQRWGFGLE [ACBD3]	4.49 ± 0.38	4.43 ± 0.38
GGPSSPPSDPPAMSPGPLDALSSP [C2CD2L]	5.23 ± 0.26	5.27 ± 0.14
LFFVPCIFLYARPNSTFPIDKSMT [OR4A15]	3.15 ± 0.51	3.43 ± 1.4
ESTPVGTVVGLFNVRDRDSGRNGE [PCDHGC5]	4.92 ± 0.33	4.89 ± 0.31
LAVRSLRRVGGSRILLRMTLGREV [NLN]	2.73 ± 0.68	2.37 ± 0.55
SSKVSGVLKKLAQSRRTALATSPI [YJU2B]	2.94 ± 0.22	3 ± 0.26
QGNSVDRMAAPRAEALFDFTGNSK [NCF4]	4.7 ± 0.15	4.79 ± 0.17
IGATFTDWFTSYVKNVVSGGFPII [FBXO3]	2.65 ± 0.84	2.7 ± 0.76
GCDRIIGSKKKFDKCMVCGGDGSG [ADAMTS4]	3.21 ± 0.34	4.053 ± 0.022
